Laboratory results reported in the nanobody polyreactivity screen of Harvey et al. (2022).

assay: yeast display, Sf9 membrane polyspecificity reagent, FACS + sequencing; frameworks hold sequencing errors
In short: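 In a synthetic yeast display library (Saccharomyces cerevisiae BJ5465), nanobody expression was induced with galactose for 36–48 hours. FACS gates were set low and high (top ~1%) using anti-HA fluorescence for expression and streptavidin fluorescence for binding of the Sf9 membrane reagent. Each polyreactivity label is drawn from the gate of origin.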

Sequence	polyreactivity (PSR sort gate)
QVQLVESGGGLVQAGGSLRLSCAASGRIFRVYAMGWYRQAPGKERELVAAISYSGGSTYYADSVKGRFTISRDNAKNTVYLQMNSLKPEDTAVYYCAAIRRSSKESKGTNPYEYWGQGTQVTVSS	high polyreactivity
QVQLVESGGGLVQAGGSLRLSCAASGRIFRVYTMGWYRPAPGKESELVAAISRGGSTNYADSVKGRFTISRDNAKNTVYLQMNSLKPEDTAVYYCAARYPNLRRRWYYYWGQGTQVTVSS	high polyreactivity
QVQLVESGGGLVQAGGSLRLSCAASGRIFRWNVTGWYRQAPGKETELDASITSGSSTNYADSVKGRFTISRDNAKYTVFLQMNSLKPEDTAVYYSAAYGVQTYRRYSYPRGFDYWGQGTQVTVSS	high polyreactivity
QVQLVESGGGLVQAGGSLRLSCAASGRIFRWYAMGWYRQAPGKERELVAAISKSGGTTNYADSVKGRFTISRDNAKNTVYLQMNSLKPEDTAVYYCAARRYPYGGYGYRYDYWGQGTQVTVSS	high polyreactivity
QVQLVESGGGLVQAGGSLRLSCAASGRIFRWYAMGWYRQAPGKERELVATISSSGRTNYADSVKGRFTISRDNAKNTVYLQMNSLKPEDTAVYYCAAEYYLRYRYDYWGQGTQVTVSS	high polyreactivity
QVQLVESGGGLVQAGGSLRLSCAASGRIFRYNAMGWYRQAPGKEREFVAAITQSGGSTYYADSVKGRFTISRDNAKNTVYLQMNRLKPEDTAVYYSAADRFYWTYLNYQFLTDYWGQGTQVNVSS	high polyreactivity
QVQLVESGGGLVQAGGSLRLSCAASGRIFRYNAMGWYRQAPGKERELVAAISTSGTRTFYADSVKGRFTISRDNAKNTVYLQMNSLKPEDTAVYYCNKVAGPGKLGTYYYWGQGTQVTVSS	high polyreactivity
QVQLVESGGGLVQAGGSLRLSCAASGRIFRYNAMGWYRQAPGKERELVAAISWGGGSTYYADSVKGRFTISRDNAKNTVYLQMNSLKPEDTAVYYCAVTSGSSFRMGYWGQGTQVTVSS	high polyreactivity
QVQLVESGGGLVQAGGSLRLSCAASGRIFRYNAMGWYRQAPGKERELVAAITSGTGTNYADSVKGRFTISRDNAKNTVYLQMNSLKPEDTAVYYCAAQPGQAWWSTDHDDYWGQGTQVTVSS	low polyreactivity
QVQLVESGGGLVQAGGSLRLSCAASGRIFRYNAMGWYRQAPGKERELVADISKRGGSTYYADSVKGRFTISRDNAKNTVYLQMNSLKPEDTAVYYCNARNTYYVVANDYWGQGTQVTVSS	high polyreactivity
QVQLVESGGGLVQAGGSLRLSCAASGRIFRYNAMGWYRQAPGKERELVATIRWGGGGTYYADSVKGRFTISRDNAKNSVYLLMNSLKPEDTAVYYCNAKRYSPGYNYWGQGTQVTVSS	high polyreactivity
QVQLVESGGGLVQAGGSLRLSCAASGRIFRYNAMGWYRQAPGKERELVATISKSGGSTYYADSVKGRFTISRDNANYTVYLQMNSLKPEDTAVYYCAASYHPWLADYGYWGQGTQVSVSS	low polyreactivity
QVQLVESGGGLVQAGGSLRLSCAASGRIFRYNAMVWYRQAPGKERELVAAITWSGTSTYYADSLKGRFTLSRDNAKNTVYLHMNSLKPEDTAVYYCNADRVDRELFTFDYWGQGTQVTVSS	high polyreactivity
QVQLVESGGGLVQAGGSLRLSCAASGRIFRYYAMGWYRPATGKERELVAGITRGGTTNYSDSVKGRFTISRDNAKNTVYLQMNSLKPEDTAVYYCAADTRRGIIGYDYWGQGTQVTVSS	high polyreactivity
QVQLVESGGGLVQAGGSLRLSCAASGRIFRYYAMGWYRQAAGKERELVAAIRYRSGGTSYADSVKGRFTISRDNAKNTVYLQMNSLKPEDTAVYYCNADKRLRGHGYDYWGQGTQVTVSS	high polyreactivity
QVQLVESGGGLVQAGGSLRLSCAASGRIFRYYAMGWYRQAPGKEREFVAAISSNTGTGTYYADSVKGRFTISRDNAKNTVYLQMNSLKPEDTAVYYCNAKYKYRGYYWGQGTQVTVSS	high polyreactivity

Sequence	polyreactivity (PSR sort gate)
QVQLVESGGGLVQAGGSLRLSCAASGRIFRYYAMGWYRQAPGKERELDAGITGRGGRTYYADSVKGRFTISRDNAKNTVYLQMNSLKPEDTAVYYCAATVSPSYDYWGQGTQVTVSS	high polyreactivity
QVQLVESGGGLVQAGGSLRLSCAASGRIFRYYAMGWYRQAPGKERELVAAIDSVGSTYYADSVKGRFTISRDNAKNTVYLQMNSLKPEDTAVYYCNARVYTFPTRYDYWGQGTQVTVSS	high polyreactivity
QVQLVESGGGLVQAGGSLRLSCAASGRIFRYYAMGWYRQAPGKERELVAAIRIRGGSTSYADSVKGRFTISRDNAKNTVYLQMNSLKPEDTAVYYCNKRDKVTYSYDYWGQGTQVTVSS	high polyreactivity
QVQLVESGGGLVQAGGSLRLSCAASGRIFRYYAMGWYRQAPGKERELVAAISGNGGRTSYADSVKGRFTISRDTAKNTVYLQMNSLNPEDTAVYYCAKYPVQSDYLFDHWGQGTQVTVSS	high polyreactivity
QVQLVESGGGLVQAGGSLRLSCAASGRIFRYYAMGWYRQAPGKERELVAAISTAGSTYYADSVMGRFTISRDNAKNTVYLQMNSLKPEDTAVYFCAARTYRSVYGPEYGYWGQGTQVTVSS	high polyreactivity
QVQLVESGGGLVQAGGSLRLSCAASGRIFRYYAMGWYRQAPGKERELVAAITKNGGSTYYADSVKRRFTISRDNAKNTVYLQMNSLKPEDTAVYYCAAARLGNYDYWGQGTQVTVSS	high polyreactivity
QVQLVESGGGLVQAGGSLRLSCAASGRIFRYYAMGWYRQAPGKERELVAAITRGGRTNYADSVKGRFTISRDNAKNTVYLQMNSLKQEDTAFYYCAARNVFQSVHVRGGYWGQGTQVTVSS	high polyreactivity
QVQLVESGGGLVQAGGSLRLSCAASGRIFRYYAMGWYRQAPGKERELVAAITWRGSSTYYADSVKGRFTISRDNAKNTVYLQMNSLKPEDTAVYYCNKLRSPHGYIRPGYDYWGQGTQVTVSS	high polyreactivity
QVQLVESGGGLVQAGGSLRLSCAASGRIFRYYAMGWYRQAPGKERELVARITNGAITNYADSVKGRFTISRDNAKNTVYLQMNSLKPEDTAVYYCAADPWYTLSVPSGYDYWGQGTQVTVSS	high polyreactivity
QVQLVESGGGLVQAGGSLRLSCAASGRIFRYYAMGWYRQAPGKERELVASITRRGGSTYYADSVKGRFTISRDNAKNTVYLQMNSLKPEDTAVYYCVGDTYYNLGNYWGQGTQVTVSS	high polyreactivity
QVQLVESGGGLVQAGGSLRLSCAASGRIFRYYAMGWYRQAPGKERELVATISSSGGSTYYADSVKGRFTISRDNAKNTVYLQMNSLKPEDTAVYYCAADWYGYRQFHGYYWGQGTQVTVSS	high polyreactivity
QVQLVESGGGLVQAGGSLRLSCAASGRIFRYYAMGWYRQEPGKERELVAVITRGTSTKYADSVKGRFTISRDNAKITVYLQMNSLKPEDTAVYYCAADYWYANVGFDYWGQGTQVTVSS	high polyreactivity
QVQLVESGGGLVQAGGSLRLSCAASGRIFRYYDMGWYRPAPGTERELVAAITSDGSTKYADSVKGRFTISRDNAKNTVYLQMNSLKPEDTAVYYCNAEVLPTWYSPQLDYWGQGTQVTVSS	low polyreactivity
QVQLVESGGGLVQAGGSLRLSCAASGRIFRYYSMGWYRQAPGKERELVAAISRSGSTNYADSVKGRFTISRDNAKNTVYFQMNSLKPEDTAVYYCAADSNYLYFWRRYKRMDYWGQGTQVTVSS	high polyreactivity
QVQLVESGGGLVQAGGSLRLSCAASGRIFRYYTMGWYRQAPGKEREFVAAITLSGGRTYYADSVKGRFTISRDNAKNTVYLQMNSLKPEDTAVYYCAAYDRITRYDYWGQGTQVTVSS	high polyreactivity
QVQLVESGGGLVQAGGSLRLSCAASGRIFRYYTMGWYRQAPGKERELVATISWNGSNTYYADSVKGRFTISRDNAKNTVYLQMNSLKPEDTAVYYCAAGVLPGLYNGARLFDYWGHGTQVTVSS	low polyreactivity
